Biological target: T1, ERα (Homo sapiens, UniProt P03372)
T1 construct: expressed in transfected cells; host or cells: SHM (Syrian hamster myocyte) cells
T1 sequence (P03372 1-595): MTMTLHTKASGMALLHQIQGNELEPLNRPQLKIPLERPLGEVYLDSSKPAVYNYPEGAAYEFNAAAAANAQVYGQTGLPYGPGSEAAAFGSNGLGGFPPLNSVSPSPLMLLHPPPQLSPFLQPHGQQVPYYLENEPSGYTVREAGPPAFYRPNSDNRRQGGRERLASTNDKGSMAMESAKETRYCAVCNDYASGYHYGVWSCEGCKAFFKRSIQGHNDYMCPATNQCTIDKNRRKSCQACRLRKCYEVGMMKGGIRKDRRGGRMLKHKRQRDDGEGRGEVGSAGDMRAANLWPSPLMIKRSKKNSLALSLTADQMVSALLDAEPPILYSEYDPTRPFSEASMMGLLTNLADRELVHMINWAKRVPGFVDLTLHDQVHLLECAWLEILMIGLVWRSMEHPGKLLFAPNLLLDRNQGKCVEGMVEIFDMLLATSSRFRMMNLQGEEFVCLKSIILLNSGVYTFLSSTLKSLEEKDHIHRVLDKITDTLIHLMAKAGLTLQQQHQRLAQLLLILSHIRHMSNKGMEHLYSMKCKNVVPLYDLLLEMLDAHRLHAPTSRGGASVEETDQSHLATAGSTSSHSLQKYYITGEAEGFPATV
Test: ERα transactivation, 3xERE luciferase reporter in SHM cells
Assay type: cell-based
Conditions: 3xERE promoter
Experimental: FIG. 4. PSF inhibit transactivation of PR but not estrogen receptor (ER). (A) SHM cells were transient cotransfected with PRA or PRB expression vectors with or without increasing dose (0.05, 0.1 and 0.2 μg) of His-PSF, together with 3×PRE (upper) or MMTV (lower) luciferase reporter vector. Four hours after transfection, culture medium was replaced with fresh DMEM containing 10 nM progesterone and the incubation continued for at least 30 hours. (B) SHM cells were transiently cotransfected with ERα or ERβ expression vector with (0.2 μg) or without His-PSF, together with 3×ERE luciferase reporter vector. Four hours after transfection, culture medium was replaced with fresh DMEM with (solid bar) or without (empty bar) 10 nM estrodial and incubation continued for at least 30 hours. Luciferase activity was measured and normalized by β-galatosidase activity. […]
For immunoprecipitation of the endogenous PR and PSF, T47D cells cultured in 150 mm dishes were lysed in 800 μl NETN buffer containing 150 mM NaCl plus protease inhibitor cocktail. […] Gels were treated with Enhancer (NEN, Boston, US) dried and analyzed by autoradiography. • Cell culture and transient transfection: SHM cells and 293T cells were maintained in DMEM plus 5% FCS (Sigma) as described before (22). […] Luciferase activity was determined by using the luciferin reagent (Promega) according to manufacture's protocol. […]

B1: polypyrimidine tract binding protein-associated splicing factor (protein)
chain: MSRDRFRSRGGGGGGFHRRGGGGGRGGLHDFRSPPPGMGLNQNRGPMGPGPGQSGPKPPIPPPPPHQQQQQPPPQQPPPQQPPPHQPPPHPQPHQQQQPPPPPQDSSKPVVAQGPGPAPGVGSAPPASSSAPPATPPTSGAPPGSGPGPTPTPPPAVTSAPPGAPPPTPPSSGVPTTPPQAGGPPPPPAAVPGPGPGPKQGPGPGGPKGGKMPGGPKPGGGPGLSTPGGHPKPPHRGGGEPRGGRQHHPPYHQQHHQGPPPGGPGGRSEEKISDSEGFKANLSLLRRPGEKTYTQRCRLFVGNLPADITEDEFKRLFAKYGEPGEVFINKGKGFGFIKLESRALAEIAKAELDDTPMRGRQLRVRFATHAAALSVRNLSPYVSNELLEEAFSQFGPIERAVVIVDDRGRSTGKGIVEFASKPAARKAFERCSEGVFLLTTTPRPVIVEPLEQLDDEDGLPEKLAQKNPMYQKERETPPRFAQHGTFEYEYSQRWKSLDEMEKQQREQVEKNMKDAKDKLESEMEDAYHEHQANLLRQDLMRRQEELRRMEELHNQEMQKRKEMQLRQEEERRRREEEMMIRQREMEEQMRRQREESYSRMGYMDPRERDMRMGGGGAMNMGDPYGSGGQKFPPLGGGGGIGYEANPGVPPATMSGSMMGSDMRTERFGQGGAGPVGGQGPRGMGPGTPAGYGRGREEYEGPNKKPRF
notes: expressed from transfected His-PSF vector or in vitro translated
B1 was tested, and the “inhibitory effects on ERα” value was “not observed”.

— patent US20070286806A1, “Methods and Compositions for Modulating a Steroid Receptor” (Mount Sinai Hospital, priority 2004, published 2007)
